The stoichiometry N is the number of molecules, sites or subunits per partner or assembly.

The source of these data is PMC6451337, “The Toxoplasma gondii dense granule protein TgGRA3 interacts with host Golgi and dysregulates anterograde transport” (Biology Open, 2019).

Data set [1] deals with the molecule itself. The data set can be described thus: SEC; GRA3_(43-161) cleaved from GST with PreScission protease, Superdex 200 Increase 3.2/300 column, AKTA Micro FPLC; protein standards 12,000-200,000 for the standard curve. On the technique in general: In gel filtration, larger molecules generally elute earlier.
Data set [2] deals with the molecule itself. The data set can be described thus: native gel or EMSA; proteins cleaved from glutathione-Sepharose beads with PreScission protease in 25 mM Tris pH 8, 1 mM DTT, 0.5 mM PMSF, 1 mM EDTA; 10% Tris-glycine native gel, unheated against heated; Coomassie Blue stain and Western blot.

B1: GRA3_(43-161), cleaved from GST (domain or fragment, Toxoplasma gondii, UniProt B6KEU8 43-161, looked up)
chain: ADQPENHQALAEPVTGVGEAGVSPVNEAGESYSSATSGVQEATAPGAVLLDAIDAESDKVDNQAEGGERMKKVEEELSLLRRELYDRTDRPGLKRAVILSLATSAAIGGRMVSRTLRDN
notes: amplified from parasite cDNA; Cloned at the BamHI site of pGEX6-P3; also called TgGRA3 recombinant protein; source: E. coli BL21, purified on glutathione-Sepharose, cleaved with PreScission protease; not shown: GST, N-terminal, cleaved
For the protein B1, the “stoichiometry N” value in data set [1] was 2.

B2: GRA3_HA-Δ43-71 (domain or fragment, Toxoplasma gondii, UniProt B6KEU8 72-161, looked up)
chain: ESYSSATSGVQEATAPGAVLLDAIDAESDKVDNQAEGGERMKKVEEELSLLRRELYDRTDRPGLKRAVILSLATSAAIGGRMVSRTLRDN
notes: also called GST-HA-Δ43-71, after cleavage; source: E. coli BL21, captured on glutathione-Sepharose beads, cleaved with PreScission protease; not shown: GST, N-terminal, cleaved; HA, N-terminal, kept
B2: the binding result in data set [2] is given as “binds”.
